Values quoted from earlier work as cited in article PMC4384115, “Molecular Recognition of PTS-1 Cargo Proteins by Pex5p: Implications for Protein Mistargeting in Primary Hyperoxaluria” (Biomolecules, 2015).
pKd: −log10 of the molar value.

What was measured:
[1] = biological target: Carnitine acyl-transferase 1 PTS1 peptide (Homo sapiens)
[2] = biological target: 3-Hydroxy-3-methylglutaryl-CoA lyase PTS1 peptide (Homo sapiens)
[3] = biological target: L-Bifunctional enzyme PTS1 peptide (Homo sapiens)

Substance: Pex5p pbd (from UniProt P50542)
- pKd [1]: 7.23
- pKd [2]: 5.70
- pKd [3]: 5.96
